# Reference: the supplement of paper PMC9233669
# Variants at the floor of the assay were thinned out.
# Legend:
# biotinyl-Met-oxazolone = assay: self-aminoacylation, catalytic enhancement (BMO) (fold over background); higher = more active; k-Seq, kA / k0A0; sequences stand for … in GGGAAUGGAUCCACAUCUACGAAUUC…UUCACUGCAGACUUGACGAAGCUG
# How it was run: (§1)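 The uncatalyzed rate is the low-activity peak of a bimodal Gaussian fit, and catalytic enhancement is median kA divided by it. The kA values came from pseudo-first-order fits, with 1000 bootstraps, of per-sequence fraction reacted measured by streptavidin capture, triplicate qPCR and Illumina sequencing. Mutagenized RNA pools with a 21-nt variable region (0.43 μM) were reacted with each biotinyl-aminoacyl-oxazolone at 2–1250 μM in 50 μL HEPES/NaCl/KCl/MgCl2/CaCl2 buffer with 5% acetonitrile, pH 6.9–7.0, for 90 minutes at room temperature.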
# biotinyl-Leu-oxazolone = assay: self-aminoacylation, catalytic enhancement (BLO) (fold over background); higher = more active; k-Seq, kA / k0A0; sequences stand for … in GGGAAUGGAUCCACAUCUACGAAUUC…UUCACUGCAGACUUGACGAAGCUG
# How it was run: as §1
# biotinyl-Trp-oxazolone = assay: self-aminoacylation, catalytic enhancement (BWO) (fold over background); higher = more active; k-Seq, kA / k0A0; sequences stand for … in GGGAAUGGAUCCACAUCUACGAAUUC…UUCACUGCAGACUUGACGAAGCUG
# How it was run: as §1
# biotinyl-Ile-oxazolone = assay: self-aminoacylation, catalytic enhancement (BIO) (fold over background); higher = more active; k-Seq, kA / k0A0; sequences stand for … in GGGAAUGGAUCCACAUCUACGAAUUC…UUCACUGCAGACUUGACGAAGCUG
# How it was run: as §1
# biotinyl-Val-oxazolone = assay: self-aminoacylation, catalytic enhancement (BVO) (fold over background); higher = more active; k-Seq, kA / k0A0; sequences stand for … in GGGAAUGGAUCCACAUCUACGAAUUC…UUCACUGCAGACUUGACGAAGCUG
# How it was run: as §1
# biotinyl-Phe-oxazolone = assay: self-aminoacylation, catalytic enhancement (BFO) (fold over background); higher = more active; k-Seq, kA / k0A0; sequences stand for … in GGGAAUGGAUCCACAUCUACGAAUUC…UUCACUGCAGACUUGACGAAGCUG
# How it was run: as §1
Sequence,self-aminoacylation (biotinyl-Met-oxazolone),self-aminoacylation (biotinyl-Leu-oxazolone),self-aminoacylation (biotinyl-Trp-oxazolone),self-aminoacylation (biotinyl-Ile-oxazolone),self-aminoacylation (biotinyl-Val-oxazolone),self-aminoacylation (biotinyl-Phe-oxazolone)
AUACACCUAGGUCAUCGGUUG [Fam2.2 aminoacylation ribozyme variant],1.44,1.31,1.54,1.1,1.24,3.92
AUACACCUAGGUGAUCGGGUG [Fam2.2 aminoacylation ribozyme variant],3.56,3.88,4.59,3.87,2.6,16.4
AUACACGUAGGUCAUCGGGUG [Fam2.2 aminoacylation ribozyme variant],3.63,3.2,3.2,2.19,2.67,17.3
AUACAGCUAGGUCAUCGGGUG [Fam2.2 aminoacylation ribozyme variant],2.96,4.04,3.64,3.25,3.09,25.1
AUACCCCUAGGUCAUCGGGUG [Fam2.2 aminoacylation ribozyme variant],8.28,10.7,7.88,5.22,5.95,71.2
AUACCCCUGGUCAUCGAGUGA [Fam2.1 aminoacylation ribozyme variant],6.17,5.62,7.04,3.42,2.88,7.63
AUACUUCAAACAAUCGGUCAG [Fam1A.1 aminoacylation ribozyme variant],0.672,0.728,1.88,0.82,0.891,3.2
AUAUCCCUGGUCAUCGAGUGA [Fam2.1 aminoacylation ribozyme variant],10.3,9.81,11.8,5.36,5.25,10.5
AUCACACUGGUCAUCGAGUGA [Fam2.1 aminoacylation ribozyme variant],6.51,6.47,8.95,4.41,4.06,42.5
AUCACCCUGCUCAUCGAGUGA [Fam2.1 aminoacylation ribozyme variant],2.48,2.67,3.44,1.57,1.9,19.1
AUCACCCUGGCCAUCGAGUGA [Fam2.1 aminoacylation ribozyme variant],6.12,6.04,7.58,3.91,3.96,32
AUCACCCUGGUCAGCGAGUGA [Fam2.1 aminoacylation ribozyme variant],8.22,8.3,10.5,4.13,4.3,38.2
AUCACCCUGGUCAUCGAGUGG [Fam2.1 aminoacylation ribozyme variant],10.3,12.7,10.2,4.14,5.02,41.8
AUCACCCUGGUCAUCGCGUGA [Fam2.1 aminoacylation ribozyme variant],33.9,36.4,33.8,12.1,17.1,215
AUCACCCUGUUCAUCGAGUGA [Fam2.1 aminoacylation ribozyme variant],4.68,5.15,5.52,2.85,2.78,30
AUCCACCUAAGUCAUCGGGUG [Fam2.2 aminoacylation ribozyme variant],11.3,14.4,9.42,6.14,7.25,90.6
AUCCACCUAGGACAUCGGGUG [Fam2.2 aminoacylation ribozyme variant],3.23,4.49,5.03,3.12,3.38,39.9
AUCCACCUAGGUCAUCAGGUG [Fam2.2 aminoacylation ribozyme variant],1.74,1.82,2.64,1.51,1.74,4.11
AUCCACCUAGGUCAUCCGGUG [Fam2.2 aminoacylation ribozyme variant],7.38,7.31,7.83,5.53,6.56,46.1
AUCCACCUAGGUCAUCGGGGG [Fam2.2 aminoacylation ribozyme variant],3.97,5.3,4.13,4.14,2.77,2.86
AUCCACCUGGGUCAUCGGGUG [Fam2.2 aminoacylation ribozyme variant],9.47,8.16,7.25,4.48,6.05,41.8
AUCCUCCUAGGUCAUCGGGUG [Fam2.2 aminoacylation ribozyme variant],11.8,12.9,9.65,6.79,7.4,68.5
AUCCUUCAAACAAUCGGUCUG [Fam1A.1 aminoacylation ribozyme variant],0.822,0.809,3.9,0.755,0.688,4.27
AUGAACCUAGGUCAUCGGGUG [Fam2.2 aminoacylation ribozyme variant],5.97,7.54,6.44,4.29,4.28,24.6
AUGACCCGGGUCAUCGAGUGA [Fam2.1 aminoacylation ribozyme variant],6.73,7.47,6.53,3.9,3.55,46.3
AUGACCCUAGUCAUCGAGUGA [Fam2.1 aminoacylation ribozyme variant],6.07,5.61,7.34,3.13,3.27,26.6

Sequence,self-aminoacylation (biotinyl-Met-oxazolone),self-aminoacylation (biotinyl-Leu-oxazolone),self-aminoacylation (biotinyl-Trp-oxazolone),self-aminoacylation (biotinyl-Ile-oxazolone),self-aminoacylation (biotinyl-Val-oxazolone),self-aminoacylation (biotinyl-Phe-oxazolone)
AUGACCCUCGUCAUCGAGUGA [Fam2.1 aminoacylation ribozyme variant],3.35,3.43,3.73,2.05,2.06,14.7
AUGACCCUGGUAAUCGAGUGA [Fam2.1 aminoacylation ribozyme variant],5.08,5.39,6.37,2.7,2.8,23.9
AUGACCCUGGUCAUCGAAUGA [Fam2.1 aminoacylation ribozyme variant],1.46,2.06,1.44,1.59,1.35,6.66
AUGACCCUGGUCAUUGAGUGA [Fam2.1 aminoacylation ribozyme variant],7.27,7.74,7.49,3.61,3,49.8
AUGACCCUGGUCGUCGAGUGA [Fam2.1 aminoacylation ribozyme variant],1.25,1.38,0.916,1.01,0.888,4.65
AUGACCCUGGUGAUCGAGUGA [Fam2.1 aminoacylation ribozyme variant],4.4,5.51,5,2.8,2.44,27.3
AUGACCCUUGUCAUCGAGUGA [Fam2.1 aminoacylation ribozyme variant],6.11,6.36,7,3.06,3.19,31.3
AUGACCUUGGUCAUCGAGUGA [Fam2.1 aminoacylation ribozyme variant],5.23,5.27,6.29,3.22,3.1,22.3
AUGAGCCUGGUCAUCGAGUGA [Fam2.1 aminoacylation ribozyme variant],5.66,5.69,6.33,3.82,3.71,31.3
AUGCACCUAGGUAAUCGGGUG [Fam2.2 aminoacylation ribozyme variant],2.56,2.31,3.25,2.07,1.94,10.9
AUGCACCUAGGUCAACGGGUG [Fam2.2 aminoacylation ribozyme variant],2.51,2.68,2.21,2.45,1.95,14.2
AUGCACCUAGGUCACCGGGUG [Fam2.2 aminoacylation ribozyme variant],3.97,3.59,4.46,3.86,3.68,25
AUGCACCUAGGUCAUCGGCUG [Fam2.2 aminoacylation ribozyme variant],2.3,1.83,2.5,1.99,2.2,11
AUGCACCUAGGUCAUCGGGUU [Fam2.2 aminoacylation ribozyme variant],4.43,4.54,4.05,3.66,3.24,5.22
AUGCACCUAGGUGAUCGGGUG [Fam2.2 aminoacylation ribozyme variant],4.8,5.11,6.5,4.96,3.71,30.7
AUGCACCUAGUUCAUCGGGUG [Fam2.2 aminoacylation ribozyme variant],2.73,3.07,4.29,2.77,2.37,13.6
AUGCACGUAGGUCAUCGGGUG [Fam2.2 aminoacylation ribozyme variant],4.47,4.72,5.33,3.52,3.89,45.4
AUGUAUGCUAAUAGUCGCAAG [Fam3.1 aminoacylation ribozyme variant],1.67,1.14,1.95,1.62,1.39,3.25
AUGUGUGCUAAUAGUCGCAAG [Fam3.1 aminoacylation ribozyme variant],1.2,1.36,1.95,1.57,1.37,3.53
AUGUUUGCUAAUAGCCGCAAG [Fam3.1 aminoacylation ribozyme variant],0.997,1.14,1.36,1.28,1.04,2.62
AUGUUUGCUAAUAGUCACAAG [Fam3.1 aminoacylation ribozyme variant],1.17,1.07,2.35,1.24,1.01,5.37
AUGUUUGCUAAUAGUCGAAAG [Fam3.1 aminoacylation ribozyme variant],1.08,1.07,2.94,1.28,1.11,8.7
AUGUUUGCUAAUAGUCGCACG [Fam3.1 aminoacylation ribozyme variant],1.02,1.13,0.741,1.15,0.981,1.24
AUGUUUGCUAAUAGUCGCAGG [Fam3.1 aminoacylation ribozyme variant],1.76,1.8,1.95,1.54,1.33,2.47
AUGUUUGCUAAUAGUCGCAUG [Fam3.1 aminoacylation ribozyme variant],1.58,1.72,1.38,1.34,1.39,1.52
